Measured values: patent publication US20210054071A1 (NANJING LEGEND BIOTECH, published 2021)
Read-outs that look alike come from different tables or passages of the source.

Key:
PD-1 expressed on cells [1] = biological target: T1, PD-1 expressed on cells (UniProt Q15116 25-288, limits assumed); experiment: cell-based or functional assay
[2] = biological target: T2, TIGIT on TIGIT effector cells (UniProt Q495A1 22-244, limits assumed); experiment: cell-based or functional assay
T2 sequence (looked up): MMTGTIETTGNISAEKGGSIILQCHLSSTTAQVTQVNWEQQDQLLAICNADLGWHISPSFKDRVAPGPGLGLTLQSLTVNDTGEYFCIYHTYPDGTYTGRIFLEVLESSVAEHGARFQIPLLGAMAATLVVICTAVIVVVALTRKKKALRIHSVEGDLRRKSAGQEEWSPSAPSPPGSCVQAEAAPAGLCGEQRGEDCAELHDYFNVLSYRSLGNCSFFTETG

[3] = biological target: T3, mouse TIGIT-His protein (Acrobiosystems) (mouse, UniProt P86176 29-148, limits assumed); experiment: SPR as in Example 2
T3 construct: bought
T3 sequence (looked up): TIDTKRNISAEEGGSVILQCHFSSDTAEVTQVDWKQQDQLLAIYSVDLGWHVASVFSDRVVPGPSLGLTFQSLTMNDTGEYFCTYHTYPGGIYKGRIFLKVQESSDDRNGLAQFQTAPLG

[4] = biological target: T4, human PD-1 (Acrobiosystems) (human, UniProt Q15116 25-167); experiment: SPR as in Example 2
T4 construct: bought

PD-1 expressed on cells [5] = biological target: T1, PD-1 expressed on cells; experiment: FACS competition, PD-L1 binding to CHO-PD-1 cells
PD-1 expressed on cells [6] = biological target: T1, PD-1 expressed on cells; experiment: FACS, CHO-PD-1 cells
[7] = biological target: T5, human TIGIT expressed on CHO-K1 cells (human, UniProt Q495A1 22-244); experiment: FACS competition, biotinylated CD155-Fc on CHO/human TIGIT cells
T5 construct: also called CHO/human TIGIT cells; CHO-TIGIT cells
T5 sequence: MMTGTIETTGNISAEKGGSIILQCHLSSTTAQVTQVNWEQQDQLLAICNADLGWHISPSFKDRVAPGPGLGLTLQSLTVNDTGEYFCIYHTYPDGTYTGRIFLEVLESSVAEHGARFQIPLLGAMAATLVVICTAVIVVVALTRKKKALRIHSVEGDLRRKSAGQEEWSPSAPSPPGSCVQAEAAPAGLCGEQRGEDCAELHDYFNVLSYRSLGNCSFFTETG

[8] = biological target: T5, human TIGIT expressed on CHO-K1 cells; experiment: FACS, CHO-TIGIT cells
[9] = biological target: T5, human TIGIT expressed on CHO-K1 cells; experiment: FACS competition, CD155 binding to CHO-TIGIT cells
[10] = biological target: T5, human TIGIT expressed on CHO-K1 cells; experiment: FACS, CHO-K1 cells expressing human TIGIT
[11] = biological target: T2, TIGIT on TIGIT effector cells; experiment: cell-based or functional assay; remark: listed apart in the source
[12] = biological target: T5, human TIGIT expressed on CHO-K1 cells; experiment: FACS, CHO-K1 cells expressing human TIGIT; remark: listed apart in the source
[13] = biological target: T2, TIGIT on TIGIT effector cells; experiment: cell-based or functional assay; remark: listed apart in the source
[14] = biological target: T5, human TIGIT expressed on CHO-K1 cells; experiment: FACS competition, CD155 binding to CHO-TIGIT cells; remark: listed apart in the source
[15] = biological target: T6, cynomolgus TIGIT expressed on CHO-K1 cells (cynomolgus, UniProt A0A7N9I9V4 89-312); experiment: FACS, CHO-K1 cells expressing cynomolgus TIGIT
T6 construct: whole, on cells

[16] = biological target: T2, TIGIT on TIGIT effector cells; experiment: cell-based or functional assay; remark: listed apart in the source
[17] = biological target: T5, human TIGIT expressed on CHO-K1 cells; experiment: FACS competition, biotinylated CD155-Fc on CHO/human TIGIT cells; remark: listed apart in the source
[18] = biological target: T7, human TIGIT-His protein (Acrobiosystems) (human, UniProt Q495A1 22-141); experiment: SPR (BIAcore T200), target amine-coupled to CM5 chip
T7 construct: Bought; Genbank NP_776160
T7 sequence: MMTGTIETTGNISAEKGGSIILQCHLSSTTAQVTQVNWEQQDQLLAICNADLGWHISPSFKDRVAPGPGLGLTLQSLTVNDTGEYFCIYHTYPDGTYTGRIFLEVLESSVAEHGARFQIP

[19] = biological target: T8, cynomolgus TIGIT-His protein (Acrobiosystems) (cynomolgus, UniProt A0A7N9I9V4 89-209); experiment: as above
T8 construct: bought

[20] = biological target: T5, human TIGIT expressed on CHO-K1 cells; experiment: FACS, CHO-TIGIT cells; remark: listed apart in the source
[21] = biological target: T7, human TIGIT-His protein (Acrobiosystems); experiment: SPR (BIAcore T200), target amine-coupled to CM5 chip; remark: listed apart in the source
[22] = biological target: T8, cynomolgus TIGIT-His protein …; experiment: as above; remark: listed apart in the source
[23] = biological target: T6, cynomolgus TIGIT expressed on CHO-K1 …; experiment: FACS, CHO-K1 cells expressing cynomolgus TIGIT; remark: listed apart in the source
[24] = biological target: T2, TIGIT on TIGIT effector cells; experiment: cell-based or functional assay; remark: listed apart in the source
[25] = biological target: T9, TIGIT on activated primary human T cells (human, UniProt Q495A1); experiment: FACS binding to activated, expanded primary human CD8+ T cells isolated from PBMCs; the sheet names only the cells, target by the binder's specificity as named in the filing (anti-TIGIT)
T9 sequence (receptor, looked up): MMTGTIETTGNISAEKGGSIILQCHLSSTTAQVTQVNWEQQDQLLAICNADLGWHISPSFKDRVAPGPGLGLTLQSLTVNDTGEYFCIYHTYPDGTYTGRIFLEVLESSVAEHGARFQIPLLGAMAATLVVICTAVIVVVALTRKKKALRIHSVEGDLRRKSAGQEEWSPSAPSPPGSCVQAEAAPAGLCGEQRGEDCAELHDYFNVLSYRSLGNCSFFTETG

[26] = biological target: T9, TIGIT on activated primary human T cells; experiment: FACS binding to activated, expanded primary human CD4+ T cells isolated from PBMCs; the sheet names only the cells, target by the binder's specificity as named in the filing (anti-TIGIT)
[27] = biological target: T7, human TIGIT-His protein (Acrobiosystems); experiment: SPR as in Example 2

T1 sequence (Q15116 25-288 limits assumed): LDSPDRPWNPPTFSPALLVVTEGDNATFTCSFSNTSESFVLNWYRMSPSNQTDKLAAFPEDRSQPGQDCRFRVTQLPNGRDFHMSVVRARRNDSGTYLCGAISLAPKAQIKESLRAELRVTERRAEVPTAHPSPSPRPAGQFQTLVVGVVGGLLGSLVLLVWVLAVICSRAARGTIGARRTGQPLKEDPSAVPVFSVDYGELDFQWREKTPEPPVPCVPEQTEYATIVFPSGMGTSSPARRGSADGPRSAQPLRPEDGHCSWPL
T4 sequence (Q15116 25-167 limits assumed): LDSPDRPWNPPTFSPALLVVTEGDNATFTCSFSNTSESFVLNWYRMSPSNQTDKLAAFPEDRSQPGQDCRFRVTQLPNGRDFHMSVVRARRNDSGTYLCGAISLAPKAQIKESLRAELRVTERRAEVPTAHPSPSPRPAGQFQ
T8 sequence (A0A7N9I9V4 entry or part of it): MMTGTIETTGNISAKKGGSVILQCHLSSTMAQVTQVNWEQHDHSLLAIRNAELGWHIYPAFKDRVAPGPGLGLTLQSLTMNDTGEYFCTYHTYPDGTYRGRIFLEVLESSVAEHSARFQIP
T6 sequence (A0A7N9I9V4 entry or part of it): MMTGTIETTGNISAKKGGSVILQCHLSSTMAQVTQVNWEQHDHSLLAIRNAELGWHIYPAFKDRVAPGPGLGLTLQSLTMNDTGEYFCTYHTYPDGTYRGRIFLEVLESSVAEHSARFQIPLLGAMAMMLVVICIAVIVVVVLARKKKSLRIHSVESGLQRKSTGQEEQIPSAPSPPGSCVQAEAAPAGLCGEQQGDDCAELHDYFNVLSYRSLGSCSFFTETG

B1: BTP-11 (bispecific antibody, human IgG4 S228P, kappa)
heavy: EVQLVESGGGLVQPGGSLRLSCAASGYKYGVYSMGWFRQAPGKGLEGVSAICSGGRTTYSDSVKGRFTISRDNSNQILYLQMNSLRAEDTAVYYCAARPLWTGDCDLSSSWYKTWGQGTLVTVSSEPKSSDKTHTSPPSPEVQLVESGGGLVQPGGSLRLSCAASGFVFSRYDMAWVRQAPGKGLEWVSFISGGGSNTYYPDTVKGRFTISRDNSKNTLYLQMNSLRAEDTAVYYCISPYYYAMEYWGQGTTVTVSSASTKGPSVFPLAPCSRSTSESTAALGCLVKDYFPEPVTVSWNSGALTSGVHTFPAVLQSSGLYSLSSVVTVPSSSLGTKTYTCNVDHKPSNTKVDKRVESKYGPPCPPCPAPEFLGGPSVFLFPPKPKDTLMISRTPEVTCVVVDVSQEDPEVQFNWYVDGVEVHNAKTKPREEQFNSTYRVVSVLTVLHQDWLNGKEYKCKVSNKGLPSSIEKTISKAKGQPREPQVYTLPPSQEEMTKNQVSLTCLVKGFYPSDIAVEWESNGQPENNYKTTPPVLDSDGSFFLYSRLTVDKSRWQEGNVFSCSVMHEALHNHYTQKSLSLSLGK
light: DIQMTQSPSSVSASVGDRVTITCKASQDVDTAVAWYQQKPGKAPKLLIYWASTRHTGVPSRFSGSGSGTDFTLTISSLQPEDFATYYCQQYSTFPWTFGGGTKVEIKRTVAAPSVFIFPPSDEQLKSGTASVVCLLNNFYPREAKVQWKVDNALQSGNSQESVTEQDSKDSTYSLSSTLTLSKADYEKHKVYACEVTHQGLSSPVTKSFNRGEC
notes: AS19584VH28 - mutated hIgG1 hinge - PD1-BM-min heavy chain (IgG4); also called BTP-11 (IgG4); PD-1×TIGIT BABP
PD-1 cell based assay EC50 (PD-1 expressed on cells [1]): 8.51 nM | TIGIT IL-2 release EC50 [2]: 0.778 nM | TIGIT Reporter assay EC50 [2]: 7.81 nM | Kd [3]: 0.5 nM | Kd [4]: 4 nM | EC50 (PD-1 expressed on cells [5]): 8.68 nM | EC50 (PD-1 expressed on cells [6]): 6.31 nM

B2: PD1-BM-min (IgG4) (antibody, V domains shown)
VH: EVQLVESGGGLVQPGGSLRLSCAASGFVFSRYDMAWVRQAPGKGLEWVSFISGGGSNTYYPDTVKGRFTISRDNSKNTLYLQMNSLRAEDTAVYYCISPYYYAMEYWGQGTTVTVSS
VL: DIQMTQSPSSVSASVGDRVTITCKASQDVDTAVAWYQQKPGKAPKLLIYWASTRHTGVPSRFSGSGSGTDFTLTISSLQPEDFATYYCQQYSTFPWTFGGGTKVEIKR
notes: anti-PD-1 monoclonal antibody, human IgG4 Fc
PD-1 cell based assay EC50 (PD-1 expressed on cells [1]): 1.21 nM | Kd [4]: 1.2 nM | EC50 (PD-1 expressed on cells [5]): 1.51 nM | EC50 (PD-1 expressed on cells [6]): 1.72 nM

B3: 22G2 (IgG1) mAb (antibody, V domains shown)
VH: QVQLQESGPGLVKPSETLSLTCTVSGGSVSSGIYYWSWIRQPPGKGLEWIGYIYYSGSTNYNPSLKSRVTISVDTSKNQFSLKLSSVTAADTAVYYCARDYYVSGNYYNVDYYFFGVDVWGQGTTVTVSS
VL: EIVLTQSPATLSLSPGERATLSCRASQSVSSYLAWYQQKPGQAPRLLIYDASNRATGIPARFSGSGSGTDFTLTISSLEPEDFAVYYCQQRSNWPPLFTFGPGTKVDIKR
notes: also called 22G2 (IgG1) (anti-TIGIT)
TIGIT Reporter assay EC50 [2]: 4.65 nM | EC50 [7]: 1.94 nM | EC50 [8]: 1.6 nM | EC50 [9]: 1.11 nM | EC50 [10]: 0.494 nM | IL-2 release assay EC50 [11]: 3.07 nM | Reporter assay EC50 [11]: 3.04 nM | EC50 [12]: 1.14 nM | TIGIT IL-2 release EC50 [13]: 2.26 nM | TIGIT Reporter assay EC50 [13]: 6.01 nM | EC50 [14]: 2.31 nM | EC50 [15]: 1.12 nM | TIGIT/CD155 blockade reporter assay, EC50 [16]: 7.92 nM | TIGIT/CD155 blockade reporter assay, Signal span [16]: 108 | EC50 [17]: 2.7 nM | Kd [18]: 0.19 nM | koff [18]: 0.00027 s⁻¹ | kon [18]: 1.4e+06 M⁻¹ s⁻¹ | Kd [19]: 3.4 nM | koff [19]: 0.0068 s⁻¹ | kon [19]: 2e+06 M⁻¹ s⁻¹ | EC50 [20]: 2.46 nM | Kd [21]: 0.12 nM | koff [21]: 0.00016 s⁻¹ | kon [21]: 1.4e+06 M⁻¹ s⁻¹ | Kd [22]: 4.1 nM | koff [22]: 0.0056 s⁻¹ | kon [22]: 1.3e+06 M⁻¹ s⁻¹ | EC50 [23]: 0.604 nM

B4: BTP-13 (bispecific antibody, human IgG4 S228P, kappa)
heavy: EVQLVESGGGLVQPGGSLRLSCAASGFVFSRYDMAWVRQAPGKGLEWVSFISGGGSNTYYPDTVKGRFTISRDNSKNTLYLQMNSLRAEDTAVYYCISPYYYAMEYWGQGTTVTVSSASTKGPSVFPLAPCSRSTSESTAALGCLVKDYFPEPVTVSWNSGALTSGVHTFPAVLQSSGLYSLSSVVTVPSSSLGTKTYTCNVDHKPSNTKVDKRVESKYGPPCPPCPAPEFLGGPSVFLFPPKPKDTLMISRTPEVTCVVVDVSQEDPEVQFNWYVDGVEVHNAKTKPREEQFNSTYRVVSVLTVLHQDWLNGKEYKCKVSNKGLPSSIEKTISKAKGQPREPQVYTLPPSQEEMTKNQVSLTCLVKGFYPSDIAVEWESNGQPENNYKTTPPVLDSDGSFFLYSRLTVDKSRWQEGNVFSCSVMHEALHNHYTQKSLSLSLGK
light: EVQLVESGGGLVQPGGSLRLSCAASGYKYGVYSMGWFRQAPGKGLEGVSAICSGGRTTYSDSVKGRFTISRDNSNQILYLQMNSLRAEDTAVYYCAARPLWTGDCDLSSSWYKTWGQGTLVTVSSEPKSSDKTHTSPPSPDIQMTQSPSSVSASVGDRVTITCKASQDVDTAVAWYQQKPGKAPKLLIYWASTRHTGVPSRFSGSGSGTDFTLTISSLQPEDFATYYCQQYSTFPWTFGGGTKVEIKRTVAAPSVFIFPPSDEQLKSGTASVVCLLNNFYPREAKVQWKVDNALQSGNSQESVTEQDSKDSTYSLSSTLTLSKADYEKHKVYACEVTHQGLSSPVTKSFNRGEC
notes: AS19584VH28 - mutated hIgG1 hinge - PD1-BM-min light chain; PD1-BM-min heavy chain (IgG4); also called BTP-13 (IgG4); PD-1×TIGIT BABP
PD-1 cell based assay EC50 (PD-1 expressed on cells [1]): 2.33 nM | TIGIT IL-2 release EC50 [2]: 0.565 nM | TIGIT Reporter assay EC50 [2]: 4.03 nM | Kd [3]: 0.62 nM | Kd [4]: 0.42 nM | EC50 (PD-1 expressed on cells [5]): 2.21 nM | EC50 (PD-1 expressed on cells [6]): 1.92 nM

B5: Tiragolumab (antibody, human IgG1, kappa, V domains shown)
VH: EVQLQQSGPGLVKPSQTLSLTCAISGDSVSSNSAAWNWIRQSPSRGLEWLGKTYYRFKWYSDYAVSVKGRITINPDTSKNQFSLQLNSVTPEDTAVFYCTRESTTYDLLAGPFDYWGQGTLVTVSS
VL: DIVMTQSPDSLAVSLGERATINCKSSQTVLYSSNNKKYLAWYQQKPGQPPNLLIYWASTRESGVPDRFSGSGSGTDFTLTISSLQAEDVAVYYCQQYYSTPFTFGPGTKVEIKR
notes: also called Tiragolumab (anti-TIGIT)
TIGIT Reporter assay EC50 [2]: 11.4 nM | PD-L1/TIGIT bifunctional reporter assay: EC50 [24]: 3.61 nM | PD-L1/TIGIT bifunctional reporter assay: Upper plateau of signal [24]: 983 | EC50 [8]: 2.24 nM | EC50 [25]: 1.41 nM | EC50 [14]: 2.42 nM | EC50 [26]: 0.403 nM

B6: AS19584VH28-Fc fusion protein with effectorless human IgG1 (inert hIgG1) Fc (Fc fusion)
chain: EVQLVESGGGLVQPGGSLRLSCAASGYKYGVYSMGWFRQAPGKGLEGVSAICSGGRTTYSDSVKGRFTISRDNSNQILYLQMNSLRAEDTAVYYCAARPLWTGDCDLSSSWYKTWGQGTLVTVSSAPELLGGPSVFLFPPKPKDTLMISRTPEVTCVVVDVSHEDPEVKFNWYVDGVEVHNAKTKPREEQYASTYRVVSVLTVLHQDWLNGKEYKCKVSNKALPAPIEKTISKAKGQPREPQVYTLPPSREEMTKNQVSLTCLVKGFYPSDIAVEWESNGQPENNYKTTPPVLDSDGSFFLYSKLTVDKSRWQQGNVFSCSVMHEALHNHYTQKSLSLSPGK
notes: built from the sdAb and the inert IgG1 Fc region it names; also called AS19584VH28 (inert IgG1); AS19584VH28 inert IgG1
TIGIT Reporter assay EC50 [2]: 5.42 nM | Kd [3]: 1.1 nM | Kd [27]: 0.36 nM | PD-L1/TIGIT bifunctional reporter assay: EC50 [24]: 10.6 nM | PD-L1/TIGIT bifunctional reporter assay: Upper plateau of signal [24]: 1610 | EC50 [25]: 0.174 nM | EC50 [26]: 0.107 nM
